Measured values published in PMC3677566 (Biochemistry, 2011).

Biological target: Ubc9 (human, UniProt P63279 1-158)
Assay: pull-down

Sequence of Ubc9 (P63279 whole entry): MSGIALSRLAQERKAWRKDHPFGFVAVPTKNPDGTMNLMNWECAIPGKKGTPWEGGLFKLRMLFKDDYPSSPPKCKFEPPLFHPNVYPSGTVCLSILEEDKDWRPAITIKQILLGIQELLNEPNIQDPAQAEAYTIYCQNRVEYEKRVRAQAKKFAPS

B1: IR1-M domain (internal repeat 1 and M) of RanBP2 (domain or fragment, UniProt P49792 2629-2710, looked up)
chain: DDDVLIVYELTPTAEQKALATKLKLPPTFFCYKNRPDYVSEEEEDDEDFETAVKKLNGKLYLDGSEKCRPLEENTADNEKEC
B1: binds.

B2: IR1-M_ΔSIM domain of RanBP2 (domain or fragment, UniProt P49792 2637-2710, looked up)
chain: ELTPTAEQKALATKLKLPPTFFCYKNRPDYVSEEEEDDEDFETAVKKLNGKLYLDGSEKCRPLEENTADNEKEC
B2: binds.
